First the molecules themselves.
B1: CPA.12.011 Fab (B03 S400-01.E01) (Fab, V domains shown)
VH: EVQLVESGGGLVQPGGTLRLSCVVSGFTFSSYAMSWVRQAPGKGLEWVSGISGSGGSTYISSGRTYRSTYYADSVKGRFTIARDNSENTLFLQLNSLRAEDTAIYYCAKVNSGEYAHTFDYWGQGTLVTVSS
VL: DIQMTQSPSSLSASVGDRVTITCRASQGISNYLVWYQQKPGKAPKSLIYAASSLQSGVPSRFSGSGSGTDFTLTISSLQPEDFATYYCQQYNYYPITFGQGTRLEIKR
notes: XOMA031 library Fab in periplasmic extract
B2: CPA.12.001 Fab (A01 S397-01.A04) (Fab, V domains shown)
VH: QVQLVESGGGLVQPGRSLRLSCAASGFTFSSYGMHWVRQAPGKGLEWVAVISYDGSNKYYADSVKGRFTISRDNSKNTLYLQMNSLRAEDTAVYYCASEGVDFWSGLDYWGQGTLVTVSS
VL: QSALTQPRSASGSAGQSVTISCTGTSSDVGGHNYVSWYQQFPGKAPKLLIYEVSHRPSGVPDRFSGSKSGNTASLTVSGLQAEDEADYYCSSYADLNNLMFGGGTKLTVLG
notes: as for B1
B3: CPA.12.005 Fab (A06 S397-01.H07) (Fab, V domains shown)
VH: QVQLVESGGGVVQPGRSLRVSCAVSGFTFSSYGMHWVRQAPGGGLEWVAVMSYEGSFRHYADSVKGRFTISRDNSKNTLFLQMDSLRAEDTAVYYCARDRPAGYTSGWGILDYWGQGTLVTVSS
VL: EIVMTQSPATLSLSPGERATLSCRASQSVSSYLAWYQQKPGQAPRLLIYDASNRATGIPARFSGSGSGTDFTLTISSLEPEDFAVYYCQQRSNWPLTFGGGTKVDIKR
notes: as for B1
B4: CPA.12.007 Fab (A08 S398-01.E08) (Fab, V domains shown)
VH: EVQLVESGGGVVQPGESLRLSCAASGFTFSSYGFHWVRQSPGEGLEWLAVISYDGTSKSYADSVKGRFTVSRDNSKETLYLQLSSLRREDTALYYCARDTWGYYYGMDVWGQGTTVTVSS
VL: DIQMTQSPSFLSGSVGDRVSISCRASQDIRSHLAWYQRKPGEAPKLLIYTASSLQGGVPLRFSGSGSGTEFTLTISSLQPEDSATYYCQHLHLYPLTFGGGTKLEIKR
notes: as for B1
B5: CPA.12.003 Fab (A03 S397-01.A12) (Fab, V domains shown)
VH: QVQLQESGPGLVTPSETLSLTCTVSGGSISSVSYYWGWVRQPPGKGLEWIGSIYYSGTTAHNPSLKSRVTMAVDTSKNQFSLSLSSVTAADTAVYFCARGWRYYEDYYFDHWGQGTLVTVSS
VL: DIQMTQSPSTLSASVGDRVTITCRASQSINRWLAWYQQKPGKAPKILIYTASSLESGVPSRFSGSGSGTEFTLTISSLQPDDFATYYCQQYNSYPITFGQGTRLEIKR
notes: as for B1
B6: CPA.12.004 Fab (A04 S397-01.D06) (Fab, V domains shown)
VH: EVQLVETGGGLIQPGRSLRLSCVASDFRFSNHAMHWVRQAPGKELEWVAVISSDGSNRQYAYSVKGRFTISRDNSKNTLYLEMNILGPEDTAVYFCVRSHLGPEWYYGMDVWGQGTTVTVSS
VL: DIQMTQSPSSLSTSVGDSVTITCRSSQSISTFLSWFQHKPGKAPNLLIYDASSLQSGVPSRFSGSGSGTDFTLTISSLQPEDFATYYCQQSDYLPFTFGPGTKVEIKR
notes: as for B1
B7: CPA.12.009 Fab (A10 S398-02.A04) (Fab, V domains shown)
VH: QMQLVQSGAEVKKPGASVKVSCKASGYTFTTHAFSWVRQAPGLGLEWMGWISTYNGNTKYEQKFQGRVTLTTDSSTNTAYMELRSLRSDDTAVYYCVRDSRAFDVWGQGTMVTVSS
VL: DIQLTQSPSFLSASVGDRVTITCRASQGINSYLAWYQQKPGAAPKLLIYAASTLQSGVPSRFSGSGSGTEFTLTISSLQPEDFATYYCQQLNTYPLIFGQGTRLEIKR
notes: as for B1

T1 sequence (chain, as listed by the source C220S C220S limits assumed): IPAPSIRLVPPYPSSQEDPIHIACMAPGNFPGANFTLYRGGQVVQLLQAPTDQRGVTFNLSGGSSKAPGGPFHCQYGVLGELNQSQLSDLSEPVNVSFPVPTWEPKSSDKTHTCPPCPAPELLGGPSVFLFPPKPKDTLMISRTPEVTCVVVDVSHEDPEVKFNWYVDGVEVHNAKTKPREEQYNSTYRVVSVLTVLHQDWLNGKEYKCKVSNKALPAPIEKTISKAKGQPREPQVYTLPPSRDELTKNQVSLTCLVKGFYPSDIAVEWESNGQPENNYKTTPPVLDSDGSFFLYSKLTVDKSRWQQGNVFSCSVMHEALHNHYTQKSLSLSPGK

This assay has as its target T1, HIDE1_HH-1 (Human ECD + human IgG1 Fc mutated C220S at hinge), without SP (human).
T1 construct: Batch #280 in the Serotec and phage display work; also called HIDE1 hECD-hIg; HIDE1 (H:H) recombinant Fc fusion protein
The experiment in a line: SPR (ProteOn), Fab PPE over captured HIDE1-HH-1, 1:1 fit. As to the method: Preliminary Fab binding kinetics were determined using Fab PPEs produced as described in paragraph [001064] (“Fab PPE production”)[001064]. Studies were conducted using Biacore 3000 and ProteOn XPR 36 instruments at 22° C.
A high density goat anti-human Fc antibody (Invitrogen) was immobilized by standard amine coupling over all lanes of a GLC chip using a ProteOn XPR 36 biosensor (Biorad). This surface was used to capture the recombinant HIDE1-H:H fusion protein (GenScript Lot 393383-21, batch #280) or a control Fc fusion protein (CD155, Sino Biologicals) in the vertical flow-cell direction at a concentration of ˜0.5 μg/mL for 90 seconds.
Regarding B1, the Kd (usually the free concentration of one partner at which half of the binding sites on the other are occupied at equilibrium, for simple one-to-one binding) was determined as 0.64 nM; the koff (as a rule, a measure of how fast the partners let go of each other) was found to be 0.00019 s⁻¹; the kon (usually the second-order rate constant of association) was found to be 290000 M⁻¹ s⁻¹.
In the same order, the values of B2 are 1.2 nM, 0.00081 s⁻¹ and 670000 M⁻¹ s⁻¹.
The matching figures for B3: 2.3 nM, 0.001 s⁻¹ and 440000 M⁻¹ s⁻¹.
In the case of B4, the Kd amounted to 1.6 nM, the koff turned out to be 0.00034 s⁻¹ and the kon was 210000 M⁻¹ s⁻¹.
For the molecule B5, the Kd worked out at 0.91 nM, the koff was 0.00022 s⁻¹ and the kon worked out at 250000 M⁻¹ s⁻¹.
In the case of B6, the Kd came to 2.1 nM, the koff turned out to be 0.0033 s⁻¹ and the kon turned out to be 1.6e+06 M⁻¹ s⁻¹.
In the same order, the values of B7 are 1 nM, 0.0014 s⁻¹ and 1.4e+06 M⁻¹ s⁻¹.
